Patent publication US11965039B2, “Compstatin analogues and their medical uses” (priority 2018, dated 2024)
Positions of bridges follow the written chain, without caps; N, C: chain ends. Non-standard residues stand in square brackets, D forms with d. Trp(1-Me) = Cn1cc(C[C@H](N)C(=O)O)c2ccccc21; Sar = CNCC(=O)O

Columns and labels:
[1] = molecular target: T1, Human C3 (Complement tech cat #A113c) (human, UniProt P01024 23-1663); test: cell-based or functional assay
[2] = molecular target: T1, Human C3 (Complement tech cat #A113c); test: cell-based or functional assay; remark: listed apart in the source
[3] = molecular target: T1, Human C3 (Complement tech cat #A113c); test: SPR (Biacore T200), human C3 immobilised, peptide injected, 1:1 fit
Method in brief: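 Human C3 amine-coupled on CM5 chips to about 3000 RU. Multi-cycle runs on Biacore T200 at 25° C: peptides at 6-8 rising concentrations, 60-120 s at 30 µL/min in 10 mM Tris pH 7.4, 150 mM NaCl, 0.05% Tween20, dissociation up to 10 min; 3 M MgCl2 regeneration. Kd derived.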

T1 sequence (P01024 23-1663 limits assumed): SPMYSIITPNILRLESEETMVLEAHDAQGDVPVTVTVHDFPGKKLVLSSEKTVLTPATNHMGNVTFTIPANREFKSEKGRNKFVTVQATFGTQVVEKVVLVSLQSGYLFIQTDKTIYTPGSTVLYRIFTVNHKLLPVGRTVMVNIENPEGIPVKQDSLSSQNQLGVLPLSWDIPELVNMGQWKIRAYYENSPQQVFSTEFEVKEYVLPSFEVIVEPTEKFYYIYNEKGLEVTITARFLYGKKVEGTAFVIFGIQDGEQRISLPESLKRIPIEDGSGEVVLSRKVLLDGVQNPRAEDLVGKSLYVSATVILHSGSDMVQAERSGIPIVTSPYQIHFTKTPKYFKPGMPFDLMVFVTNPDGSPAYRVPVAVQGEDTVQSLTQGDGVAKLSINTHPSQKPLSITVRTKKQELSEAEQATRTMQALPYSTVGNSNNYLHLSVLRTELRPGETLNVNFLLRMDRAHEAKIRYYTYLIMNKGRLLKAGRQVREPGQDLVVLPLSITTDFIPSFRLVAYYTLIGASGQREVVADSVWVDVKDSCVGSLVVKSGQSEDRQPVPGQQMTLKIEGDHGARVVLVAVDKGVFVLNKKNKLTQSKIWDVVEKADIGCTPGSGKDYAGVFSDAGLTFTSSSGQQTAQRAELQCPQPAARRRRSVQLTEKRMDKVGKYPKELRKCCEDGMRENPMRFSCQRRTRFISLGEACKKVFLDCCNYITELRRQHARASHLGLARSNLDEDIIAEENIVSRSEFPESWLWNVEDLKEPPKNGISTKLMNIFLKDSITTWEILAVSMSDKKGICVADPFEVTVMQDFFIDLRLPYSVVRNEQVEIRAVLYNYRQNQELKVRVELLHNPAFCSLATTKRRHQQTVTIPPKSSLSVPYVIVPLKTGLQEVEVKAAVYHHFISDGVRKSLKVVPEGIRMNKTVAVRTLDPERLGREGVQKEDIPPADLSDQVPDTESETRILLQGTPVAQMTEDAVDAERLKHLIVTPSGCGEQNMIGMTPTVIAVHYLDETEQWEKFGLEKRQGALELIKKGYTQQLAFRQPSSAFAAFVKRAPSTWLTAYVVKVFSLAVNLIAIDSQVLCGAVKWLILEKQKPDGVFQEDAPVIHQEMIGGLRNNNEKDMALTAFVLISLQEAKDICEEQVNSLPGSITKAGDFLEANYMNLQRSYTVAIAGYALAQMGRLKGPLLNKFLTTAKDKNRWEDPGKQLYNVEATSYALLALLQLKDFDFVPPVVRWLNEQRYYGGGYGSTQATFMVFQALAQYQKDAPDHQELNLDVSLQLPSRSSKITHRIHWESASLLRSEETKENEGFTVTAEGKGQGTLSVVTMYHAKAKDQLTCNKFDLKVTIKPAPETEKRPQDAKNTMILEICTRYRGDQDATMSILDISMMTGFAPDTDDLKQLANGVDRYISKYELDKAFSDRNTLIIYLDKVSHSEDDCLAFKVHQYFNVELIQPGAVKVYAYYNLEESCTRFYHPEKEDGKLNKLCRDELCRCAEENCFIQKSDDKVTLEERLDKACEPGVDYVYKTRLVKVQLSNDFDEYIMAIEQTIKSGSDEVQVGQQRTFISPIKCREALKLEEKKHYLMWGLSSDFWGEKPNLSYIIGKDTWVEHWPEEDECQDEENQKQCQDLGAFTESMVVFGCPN

| Kd [3] [nM] | Binder | CP hemolysis IC50 [1] [nM] | inhibition of hemolysis IC50 [2] [nM] |
| --- | --- | --- | --- |
|  | Ac-ESSAICVWQDWGEHRCT-NH2 (disulfide 6-16; SMILES CC[C@H](C)[C@H](NC(=O)[C@H](C)NC(=O)[C@H](CO)NC(=O)[C@H](CO)NC(=O)[C@H](CCC(=O)O)NC(C)=O)C(=O)N[C@H]1CSSC[C@@H](C(=O)N[C@H](C(N)=O)[C@@H](C)O)NC(=O)[C@H](CCCNC(=N)N)NC(=O)[C@H](Cc2c[nH]cn2)NC(=O)[C@H](CCC(=O)O)NC(=O)CNC(=O)[C@H](Cc2c[nH]c3ccccc23)NC(=O)[C@H](CC(=O)O)NC(=O)[C@H](CCC(N)=O)NC(=O)[C@H](Cc2c[nH]c3ccccc23)NC(=O)[C@H](C(C)C)NC1=O) [Compound C] | 300 |  |
| 37 | Ac-ICIWQDWGEHSCT-NH2 (disulfide 2-12; SMILES CC[C@H](C)[C@H](NC(C)=O)C(=O)N[C@H]1CSSC[C@@H](C(=O)N[C@H](C(N)=O)[C@@H](C)O)NC(=O)[C@H](CO)NC(=O)[C@H](Cc2c[nH]cn2)NC(=O)[C@H](CCC(=O)O)NC(=O)CNC(=O)[C@H](Cc2c[nH]c3ccccc23)NC(=O)[C@H](CC(=O)O)NC(=O)[C@H](CCC(N)=O)NC(=O)[C@H](Cc2c[nH]c3ccccc23)NC(=O)[C@H]([C@@H](C)CC)NC1=O) [Compound 20] | 59 | < 100 |
|  | Ac-ICVWQDWGEHSCT-NH2 (disulfide 2-12; SMILES CC[C@H](C)[C@H](NC(C)=O)C(=O)N[C@H]1CSSC[C@@H](C(=O)N[C@H](C(N)=O)[C@@H](C)O)NC(=O)[C@H](CO)NC(=O)[C@H](Cc2c[nH]cn2)NC(=O)[C@H](CCC(=O)O)NC(=O)CNC(=O)[C@H](Cc2c[nH]c3ccccc23)NC(=O)[C@H](CC(=O)O)NC(=O)[C@H](CCC(N)=O)NC(=O)[C@H](Cc2c[nH]c3ccccc23)NC(=O)[C@H](C(C)C)NC1=O) [Compound F] | 540 |  |
|  | Ac-ICVWQDWGEHRCTEGE-NH2 (disulfide 2-12; SMILES CC[C@H](C)[C@H](NC(C)=O)C(=O)N[C@H]1CSSC[C@@H](C(=O)N[C@H](C(=O)N[C@@H](CCC(=O)O)C(=O)NCC(=O)N[C@@H](CCC(=O)O)C(N)=O)[C@@H](C)O)NC(=O)[C@H](CCCNC(=N)N)NC(=O)[C@H](Cc2c[nH]cn2)NC(=O)[C@H](CCC(=O)O)NC(=O)CNC(=O)[C@H](Cc2c[nH]c3ccccc23)NC(=O)[C@H](CC(=O)O)NC(=O)[C@H](CCC(N)=O)NC(=O)[C@H](Cc2c[nH]c3ccccc23)NC(=O)[C@H](C(C)C)NC1=O) [Compound J] | 240 |  |
|  | Ac-ICVWQDWGSHRCT-NH2 (disulfide 2-12; SMILES CC[C@H](C)[C@H](NC(C)=O)C(=O)N[C@H]1CSSC[C@@H](C(=O)N[C@H](C(N)=O)[C@@H](C)O)NC(=O)[C@H](CCCNC(=N)N)NC(=O)[C@H](Cc2c[nH]cn2)NC(=O)[C@H](CO)NC(=O)CNC(=O)[C@H](Cc2c[nH]c3ccccc23)NC(=O)[C@H](CC(=O)O)NC(=O)[C@H](CCC(N)=O)NC(=O)[C@H](Cc2c[nH]c3ccccc23)NC(=O)[C@H](C(C)C)NC1=O) [Compound B] | 360 |  |
| 44 | Ac-EGSAICIWQDWGEHRC[Sar]E-NH2 (disulfide 6-16; SMILES CC[C@H](C)[C@H](NC(=O)[C@H](C)NC(=O)[C@H](CO)NC(=O)CNC(=O)[C@H](CCC(=O)O)NC(C)=O)C(=O)N[C@H]1CSSC[C@@H](C(=O)N(C)CC(=O)N[C@@H](CCC(=O)O)C(N)=O)NC(=O)[C@H](CCCNC(=N)N)NC(=O)[C@H](Cc2c[nH]cn2)NC(=O)[C@H](CCC(=O)O)NC(=O)CNC(=O)[C@H](Cc2c[nH]c3ccccc23)NC(=O)[C@H](CC(=O)O)NC(=O)[C@H](CCC(N)=O)NC(=O)[C@H](Cc2c[nH]c3ccccc23)NC(=O)[C@H]([C@@H](C)CC)NC1=O) [Compound 28] | 88 | < 100 |
|  | Ac-ESSAICIWQDWGEHRCT-NH2 (disulfide 6-16; SMILES CC[C@H](C)[C@H](NC(=O)[C@H](C)NC(=O)[C@H](CO)NC(=O)[C@H](CO)NC(=O)[C@H](CCC(=O)O)NC(C)=O)C(=O)N[C@H]1CSSC[C@@H](C(=O)N[C@H](C(N)=O)[C@@H](C)O)NC(=O)[C@H](CCCNC(=N)N)NC(=O)[C@H](Cc2c[nH]cn2)NC(=O)[C@H](CCC(=O)O)NC(=O)CNC(=O)[C@H](Cc2c[nH]c3ccccc23)NC(=O)[C@H](CC(=O)O)NC(=O)[C@H](CCC(N)=O)NC(=O)[C@H](Cc2c[nH]c3ccccc23)NC(=O)[C@H]([C@@H](C)CC)NC1=O) [Compound 3] | 69 | < 100 |
|  | Ac-ICIWQDWGAHSCT-NH2 (disulfide 2-12; SMILES CC[C@H](C)[C@H](NC(C)=O)C(=O)N[C@H]1CSSC[C@@H](C(=O)N[C@H](C(N)=O)[C@@H](C)O)NC(=O)[C@H](CO)NC(=O)[C@H](Cc2c[nH]cn2)NC(=O)[C@H](C)NC(=O)CNC(=O)[C@H](Cc2c[nH]c3ccccc23)NC(=O)[C@H](CC(=O)O)NC(=O)[C@H](CCC(N)=O)NC(=O)[C@H](Cc2c[nH]c3ccccc23)NC(=O)[C@H]([C@@H](C)CC)NC1=O) [Compound 19] | 140 | < 250 |
| 1.3 | Ac-EFCI[Trp(1-Me)]QDWGEHRCES-NH2 (disulfide 3-13; SMILES CC[C@H](C)[C@@H]1NC(=O)[C@@H](NC(=O)[C@H](Cc2ccccc2)NC(=O)[C@H](CCC(=O)O)NC(C)=O)CSSC[C@@H](C(=O)N[C@@H](CCC(=O)O)C(=O)N[C@@H](CO)C(N)=O)NC(=O)[C@H](CCCNC(=N)N)NC(=O)[C@H](Cc2c[nH]cn2)NC(=O)[C@H](CCC(=O)O)NC(=O)CNC(=O)[C@H](Cc2c[nH]c3ccccc23)NC(=O)[C@H](CC(=O)O)NC(=O)[C@H](CCC(N)=O)NC(=O)[C@H](Cc2cn(C)c3ccccc23)NC1=O) [Compound 85] |  | < 100 |
|  | Ac-EGSAICVWQDWGEHRC[Sar]E-NH2 (disulfide 6-16; SMILES CC[C@H](C)[C@H](NC(=O)[C@H](C)NC(=O)[C@H](CO)NC(=O)CNC(=O)[C@H](CCC(=O)O)NC(C)=O)C(=O)N[C@H]1CSSC[C@@H](C(=O)N(C)CC(=O)N[C@@H](CCC(=O)O)C(N)=O)NC(=O)[C@H](CCCNC(=N)N)NC(=O)[C@H](Cc2c[nH]cn2)NC(=O)[C@H](CCC(=O)O)NC(=O)CNC(=O)[C@H](Cc2c[nH]c3ccccc23)NC(=O)[C@H](CC(=O)O)NC(=O)[C@H](CCC(N)=O)NC(=O)[C@H](Cc2c[nH]c3ccccc23)NC(=O)[C@H](C(C)C)NC1=O) [Compound H] | 330 |  |
|  | Ac-ICIWQDWGSHRCT-NH2 (disulfide 2-12; SMILES CC[C@H](C)[C@H](NC(C)=O)C(=O)N[C@H]1CSSC[C@@H](C(=O)N[C@H](C(N)=O)[C@@H](C)O)NC(=O)[C@H](CCCNC(=N)N)NC(=O)[C@H](Cc2c[nH]cn2)NC(=O)[C@H](CO)NC(=O)CNC(=O)[C@H](Cc2c[nH]c3ccccc23)NC(=O)[C@H](CC(=O)O)NC(=O)[C@H](CCC(N)=O)NC(=O)[C@H](Cc2c[nH]c3ccccc23)NC(=O)[C@H]([C@@H](C)CC)NC1=O) [Compound 6] | 140 | < 250 |
| 28 | Ac-ICIWQDWGEHRCTEGE-NH2 (disulfide 2-12; SMILES CC[C@H](C)[C@H](NC(C)=O)C(=O)N[C@H]1CSSC[C@@H](C(=O)N[C@H](C(=O)N[C@@H](CCC(=O)O)C(=O)NCC(=O)N[C@@H](CCC(=O)O)C(N)=O)[C@@H](C)O)NC(=O)[C@H](CCCNC(=N)N)NC(=O)[C@H](Cc2c[nH]cn2)NC(=O)[C@H](CCC(=O)O)NC(=O)CNC(=O)[C@H](Cc2c[nH]c3ccccc23)NC(=O)[C@H](CC(=O)O)NC(=O)[C@H](CCC(N)=O)NC(=O)[C@H](Cc2c[nH]c3ccccc23)NC(=O)[C@H]([C@@H](C)CC)NC1=O, also called Comp No 24) [Compound 24] | 90 | < 100 |
|  | Ac-ICVWQDWGAHSCT-NH2 (disulfide 2-12; SMILES CC[C@H](C)[C@H](NC(C)=O)C(=O)N[C@H]1CSSC[C@@H](C(=O)N[C@H](C(N)=O)[C@@H](C)O)NC(=O)[C@H](CO)NC(=O)[C@H](Cc2c[nH]cn2)NC(=O)[C@H](C)NC(=O)CNC(=O)[C@H](Cc2c[nH]c3ccccc23)NC(=O)[C@H](CC(=O)O)NC(=O)[C@H](CCC(N)=O)NC(=O)[C@H](Cc2c[nH]c3ccccc23)NC(=O)[C@H](C(C)C)NC1=O) [Compound E] | > 1000 |  |
